The text below walks through data of publication PMC3426162 (Archaea, 2012).

For series [1], the target named is T1, AMP-dependent ACS (Mthe_1194) (Methanothrix thermoacetophila, UniProt A0B8F1).
T1 construct: gene acsA; full-length gene in pASK-IBA5, N-terminal Strep-tag II, E. coli BL21 (DE3) pLysS; approximately 75 kDa on SDS gel
T1 sequence (A0B8F1 1-659): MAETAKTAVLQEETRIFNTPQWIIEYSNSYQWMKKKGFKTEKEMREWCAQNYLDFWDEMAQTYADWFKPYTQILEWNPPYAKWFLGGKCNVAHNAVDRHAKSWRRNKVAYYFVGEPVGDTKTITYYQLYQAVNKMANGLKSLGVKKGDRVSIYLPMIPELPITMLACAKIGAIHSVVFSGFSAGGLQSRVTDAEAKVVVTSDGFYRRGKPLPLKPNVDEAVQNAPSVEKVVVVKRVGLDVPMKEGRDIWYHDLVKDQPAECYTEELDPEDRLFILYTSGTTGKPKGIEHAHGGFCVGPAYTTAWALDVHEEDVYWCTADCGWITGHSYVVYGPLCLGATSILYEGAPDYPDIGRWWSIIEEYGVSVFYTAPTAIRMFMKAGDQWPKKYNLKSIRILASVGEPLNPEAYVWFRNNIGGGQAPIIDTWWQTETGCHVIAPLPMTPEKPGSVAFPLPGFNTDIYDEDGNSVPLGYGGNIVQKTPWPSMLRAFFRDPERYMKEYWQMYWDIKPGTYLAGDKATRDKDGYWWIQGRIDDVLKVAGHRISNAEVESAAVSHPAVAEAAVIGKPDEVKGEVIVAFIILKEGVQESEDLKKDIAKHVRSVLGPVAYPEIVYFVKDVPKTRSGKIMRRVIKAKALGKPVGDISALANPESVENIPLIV
Nature of the series: discontinuous pyrophosphate detection (molybdate / Eikonogen, […] nm). Particulars: co-substrates ATP and CoA; 55°C. Type of series: biochemical.

For series [2], the target named is T1, AMP-dependent ACS (Mthe_1194). Nature of the series: coupled assay via auxiliary enzymes (myokinase, pyruvate kinase, lactate dehydrogenase), NADH […] nm. Type of series: biochemical. Particulars: read-out: 50% reduction of the reaction rate.
Substrate in series [3]: Nc1ncnc2c1ncn2[C@@H]1O[C@H](COP(=O)(O)OP(=O)(O)OP(=O)(O)O)[C@@H](O)[C@H]1O
Nature of the series: purified protein. As to conditions: co-substrates acetate and CoA, 55°C. The class given is biochemical, Methanothrix thermoacetophila.

Substrate in series [4]: CC(C)(COP(=O)(O)OP(=O)(O)OC[C@H]1O[C@@H](n2cnc3c(N)ncnc32)[C@H](O)[C@@H]1OP(=O)(O)O)[C@@H](O)C(=O)NCCC(=O)NCCS
Nature of the series: purified protein. Type of series: biochemical, Methanothrix thermoacetophila. Particulars: co-substrates acetate and ATP, 55°C.

Substrate in series [5]: CC(=O)O
Nature of the series: purified protein. Particulars: 50 mM HEPES pH 7.5, 5 mM MgCl2, 1 mM CoA, 2.5 mM ATP, 55°C.

In the case of `CCC(=O)O` [propionate], the “discontinuous pyrophosphate detection (molybdate / Eikonogen, 580 nm)” value in series [1] is given as “A reaction was also observed with propionate”. As for `O=P(O)(O)OP(=O)(O)O` [PPi], the IC50 in series [2] was around 250 µM.

B1: AMP-dependent ACS (Mthe_1194) (Methanothrix thermoacetophila PT) (protein)
chain: MAETAKTAVLQEETRIFNTPQWIIEYSNSYQWMKKKGFKTEKEMREWCAQNYLDFWDEMAQTYADWFKPYTQILEWNPPYAKWFLGGKCNVAHNAVDRHAKSWRRNKVAYYFVGEPVGDTKTITYYQLYQAVNKMANGLKSLGVKKGDRVSIYLPMIPELPITMLACAKIGAIHSVVFSGFSAGGLQSRVTDAEAKVVVTSDGFYRRGKPLPLKPNVDEAVQNAPSVEKVVVVKRVGLDVPMKEGRDIWYHDLVKDQPAECYTEELDPEDRLFILYTSGTTGKPKGIEHAHGGFCVGPAYTTAWALDVHEEDVYWCTADCGWITGHSYVVYGPLCLGATSILYEGAPDYPDIGRWWSIIEEYGVSVFYTAPTAIRMFMKAGDQWPKKYNLKSIRILASVGEPLNPEAYVWFRNNIGGGQAPIIDTWWQTETGCHVIAPLPMTPEKPGSVAFPLPGFNTDIYDEDGNSVPLGYGGNIVQKTPWPSMLRAFFRDPERYMKEYWQMYWDIKPGTYLAGDKATRDKDGYWWIQGRIDDVLKVAGHRISNAEVESAAVSHPAVAEAAVIGKPDEVKGEVIVAFIILKEGVQESEDLKKDIAKHVRSVLGPVAYPEIVYFVKDVPKTRSGKIMRRVIKAKALGKPVGDISALANPESVENIPLIV
notes: full-length gene in pASK-IBA5, N-terminal Strep-tag II, E. coli BL21 (DE3) pLysS; approximately 75 kDa on SDS gel
As for B1, the Km was 20 µM in the series “purified protein [3]”, 14.5 µM in “purified protein [4]” and 400 µM in the series “purified protein [5]”.

Usually Km stands for the concentration of substrate that gives half-maximal velocity.
